Measured values from PMC8860610, “The fork protection complex recruits FACT to reorganize nucleosomes during replication” (Nucleic Acids Research, 2022).

How the values were obtained:
Details in all cases: both partners purified
[1] = target: T1, full-length (fl) FACT (Spt16-Pob3) (Saccharomyces cerevisiae, UniProt P32558 1-1035; Q04636 1-552); assay: pull-down; 1.5 μM CBP-Csm3Tof1 as bait on Calmodulin Affinity Resin, 3 μM fl FACT as prey, 90 min at 4°C, washed with buffer C (25 mM HEPES-NaOH pH 7.6, 300 mM NaCl, 2 mM CaCl2), eluted with EDTA and EGTA, SDS-PAGE
T1 construct: Spt16, subunit of FACT, Saccharomyces cerevisiae; Pob3, subunit of FACT, Saccharomyces cerevisiae; His-tag cleaved by TEV protease; also called yFACT when together with Nhp6; source: yeast strain yBS2, galactose-induced, purified (HisTrap, TEV cleavage, Q column, Superdex 200)

[2] = target: T2, FACT consisting of Spt16 and GST-tagged Pob3 (Saccharomyces cerevisiae, UniProt P32558 1-1035; Q04636 1-552); assay: pull-down; 0.5 μM GST-Pob3Spt16 as bait with 1 μM replisome factor, on ice 30 min, immobilised on glutathione agarose 90 min at 4°C, washed with buffer G (50 mM HEPES-NaOH pH 7.6, 300 mM NaCl, 0.05% NP-40), eluted with glutathione, SDS-PAGE
T2 construct: Spt16, subunit of FACT, Saccharomyces cerevisiae; Pob3, subunit of FACT, Saccharomyces cerevisiae; The methods speak of a His-tag cleaved by TEV protease without telling which subunit carried it; also called GST-Pob3Spt16; GST-tagged Pob3-Spt16; source: yeast strain yBS2, galactose-induced, purified (HisTrap, Q column, Superdex 200)

[3] = target: T3, Spt16 subunit on its own (Saccharomyces cerevisiae, UniProt P32558 1-1035); assay: pull-down; 1.5 μM GST fusion proteins (Tof1_N, Tof1_M, Tof1_C, Csm3) as bait on glutathione agarose, 3 μM fl FACT or FACT truncations as prey, 90 min at 4°C, washed with buffer G (300 mM NaCl), eluted with glutathione, SDS-PAGE
T3 construct: Spt16, Saccharomyces cerevisiae, without Pob3; also called Spt16 alone; source: yeast strain yBS2, purified by the same strategy as FACT

[4] = target: T1, full-length (fl) FACT (Spt16-Pob3); assay: as above

binding result [1]	binding result [2]	binding result [3]	binding result [4]	Binder
binds	binds			Tof1-Csm3 (full-length, CBP-tagged) (complex, Saccharomyces cerevisiae, Tof1, subunit of the fork protection complex, Saccharomyces cerevisiae (1238 aa by the printed truncation limits); Csm3, subunit of the fork protection complex, Saccharomyces cerevisiae; also called CBP-Csm3Tof1; CBP-tagged Csm3-Tof1) chain 1: MSADLQQGTTNAADFSLTVLRARIALLATAIGGPDYTSQIDPPPYKLGDDCLACLKDLKRWFKLVDDQQKRWDVAMAVAEYRILTDDLLPILIDWENKCSLAAKLAKNNPDHEEFRNKAYYDKIALNCLQLLVLMTWPLIVTEQSSSNQITLYGELKKHQLVYKKTILSMESGKVLRAAIRLALDVIKIDRLSRTPRDNMVLKLVLNFFRNVIAIEPGEFTINTKKSMPKKGITSIDTLPPNVSMDDISLNTVISSFHKNKVFGFLLTLTSSLSKEFDQDFINIPLLEIMFYFTKDVNQELLFPRQFETGTHSKVVNKNESSSANNIVTSAGFELSKLLQKEHQMRKNVIKHTSARHSRFGGLLSIQTPDKTRLTVSGSQALVDEKIALQKLDDSKKWNKRIIKKHQSVAAEGLPNSLLNSQTGKAIFFTESNGKHFKEFINNFIDSGFNILLHSVTNYFTTEQDRMVTLEQVEYLLFFAWFVKYQLLRSKIDNSADIKQVSEALKEVTFILVSSLLRSAYDLKNWTVTHAGMIAFNELLNLVSRTKAAQEEDSTDIEFIVSRLFSDERIQLLSNLPKIGSKYSLQFMKSCIELTHSVLKVLEQYSDDKTLVIEGKSRRQKKFNISEGDITKLIEEENVDRDEALDILTSSLRSIEVNFQKVQANYMTEPVIETYINFLERFRELEDDSIKKVFSFFHRVFVQAKEQALLFRFDLIILLREMLSPDGLDRMSRSRKYVSQFSDYFLARLKKRLKKSPAWFVGLLFPPLHNSEVGFYQRYGEYNVLNNESMYAAPASQFKPIPDEEALPPSILLDMKYGVLVSTLLDDGKTELLDQLLKHITHTLDIFKSWLTVNVNAGKETVNPPNEYFTLTGVLNNDPIFKDKDYRALLLLIGYSIPRKINEPCFLPGTVEVSDLTVSCELVKKYLSTPFETPNGLPSSSYLLRVRSEKDSFSHNEQDGWEGDDDYDYNDPYIVPDDQILSKSDAAYFKDLDNNASDKLKGTKFSKGIARSKKKDKRKRRKGEAKTNLPMFGDQDDERPQTVRERHGVFSKEFISDSEDDEDLMNPIFFENETYMRWLLDKNNGQLTEDRYIQFAKFAAERMNNGGVVTGDYTSLFGGSIPSIESIRATESSSFAPDKSLISLASHVASEMSIFDVNNNNNNQLSDDDVNSESRNSLGSSQPSNSQNMFQSEVYSRKESTKRSLEASAADESDEDEEAIRLFGKKSRVVLSQGDSDD chain 2: MDQDFDSLLLGFNDSDSVQKDPTVPNGLDGSVVDPTIADPTAITARKRRPQVKLTAEKLLSDKGLPYVLKNAHKRIRISSKKNSYDNLSNIIQFYQLWAHELFPKAKFKDFMKICQTVGKTDPVLREYRVSLFRDEMGMSFDVGTRETGQDLERQSPMVEEHVTSAEERPIVADSFAQDKRNVNNVDYDNDEDDDIYHLSYRNRRGRVLDERGNNETVLNNVVPPKEDLDALLKTFRVQGPVGLEENEKKLLLGWLDAHRKMEKGSMTEEDVQLIQSLEEWEMNDIEGQHTHYDLLPGGDEFGVDQDELDAMKEMGF
		binds	binds	GST-tagged Tof1_C (938-1238 aa) (domain or fragment, Saccharomyces cerevisiae, UniProt P53840 938-1238, looked up, Tof1, Saccharomyces cerevisiae, residues 938-1238, codon optimized for bacteria; Cloned into a pET GST-His6-TEV vector; no cleavage is described; source: E. coli BL21 (DE3) codon plus RIL, purified (GSTrap, Q column, Superdex 200)) PSSSYLLRVRSEKDSFSHNEQDGWEGDDDYDYNDPYIVPDDQILSKSDAAYFKDLDNNASDKLKGTKFSKGIARSKKKDKRKRRKGEAKTNLPMFGDQDDERPQTVRERHGVFSKEFISDSEDDEDLMNPIFFENETYMRWLLDKNNGQLTEDRYIQFAKFAAERMNNGGVVTGDYTSLFGGSIPSIESIRATESSSFAPDKSLISLASHVASEMSIFDVNNNNNNQLSDDDVNSESRNSLGSSQPSNSQNMFQSEVYSRKESTKRSLEASAADESDEDEEAIRLFGKKSRVVLSQGDSDD
